System: Escherichia coli TOP10
Assay: shrunken log2 fold change of peptide-encoding DNA abundance (4.5 h post-induction vs induction); higher = less antimicrobial activity (less host growth inhibition)
Settings: time post-induction: 4.5 h; library: site-saturation at positions 5, 18, 19, 20
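Further: peptides expressed intracellularly from a pBAD plasmid library in pooled LB shake-flask culture, induced with 0.3% L-arabinose, DNA abundance read by NGS, three biological replicates, DESeq2 with apeglm shrinkage.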

Row | Sequence | shrunken log2 fold change
1 | RRIRERPPRLPRPRPRPFMDPRP | -0.243
2 | RRIRARPPRLPRPRPRPPNHPRP | 0.305
3 | RRIRVRPPRLPRPRPRPMRGPRP | 0.444
4 | RRIRFRPPRLPRPRPRPLHSPRP | 0.12
5 | RRIRDRPPRLPRPRPRPHYTPRP | -0.73
6 | RRIRKRPPRLPRPRPRPYFNPRP | -0.593
7 | RRIRCRPPRLPRPRPRPARAPRP | 0.471
8 | RRIRKRPPRLPRPRPRPITWPRP | 0.0399
9 | RRIRGRPPRLPRPRPRPTEHPRP | 0.569
10 | RRIRHRPPRLPRPRPRPHQEPRP | -0.0212
11 | RRIRTRPPRLPRPRPRPIRCPRP | 0.0185
12 | RRIRCRPPRLPRPRPRPWYPPRP | -0.742
13 | RRIRDRPPRLPRPRPRPQCVPRP | 0.0602
14 | RRIRHRPPRLPRPRPRPIIYPRP | -0.295
15 | RRIRCRPPRLPRPRPRPPPMPRP | 1.08
16 | RRIRHRPPRLPRPRPRPGIFPRP | -0.24
17 | RRIRERPPRLPRPRPRPYVSPRP | -0.672
18 | RRIRPRPPRLPRPRPRPCMEPRP | -0.106
19 | RRIRTRPPRLPRPRPRPVPGPRP | 0.151
20 | RRIRMRPPRLPRPRPRPLPCPRP | 0.372
21 | RRIRYRPPRLPRPRPRPNQGPRP | -0.00893
22 | RRIRRRPPRLPRPRPRPQTFPRP | 0.264
23 | RRIRNRPPRLPRPRPRPGQFPRP | -0.0134
24 | RRIRSRPPRLPRPRPRPDCMPRP | -0.165
25 | RRIRFRPPRLPRPRPRPYMSPRP | -0.401

Row | Sequence | shrunken log2 fold change
26 | RRIRPRPPRLPRPRPRPPEDPRP | 0.695
27 | RRIRQRPPRLPRPRPRPFLNPRP | -0.118
28 | RRIRNRPPRLPRPRPRPYLRPRP | -0.0191
29 | RRIRFRPPRLPRPRPRPPAAPRP | 1.32
30 | RRIRERPPRLPRPRPRPLVHPRP | -0.158
31 | RRIRQRPPRLPRPRPRPFMWPRP | -0.245
32 | RRIRARPPRLPRPRPRPYARPRP | -0.118
33 | RRIRKRPPRLPRPRPRPTSWPRP | 0.6
34 | RRIRDRPPRLPRPRPRPCKQPRP | -0.00787
35 | RRIRDRPPRLPRPRPRPGSTPRP | 0.637
36 | RRIRDRPPRLPRPRPRPIYRPRP | -0.175
37 | RRIRVRPPRLPRPRPRPMVAPRP | -0.148
38 | RRIRARPPRLPRPRPRPGMKPRP | 0.186
39 | RRIRKRPPRLPRPRPRPLVMPRP | 0.432
40 | RRIRFRPPRLPRPRPRPCTSPRP | -0.0377
41 | RRIRDRPPRLPRPRPRPVKKPRP | -0.0221
42 | RRIRPRPPRLPRPRPRPIQGPRP | -0.128
43 | RRIRRRPPRLPRPRPRPMTWPRP | -0.154
44 | RRIRTRPPRLPRPRPRPCFAPRP | 0.083
45 | RRIRTRPPRLPRPRPRPNFMPRP | -0.401
46 | RRIRVRPPRLPRPRPRPNFMPRP | 0.0796
47 | RRIRERPPRLPRPRPRPTYTPRP | -0.756
48 | RRIRDRPPRLPRPRPRPEVNPRP | 0.0354
49 | RRIRTRPPRLPRPRPRPDAKPRP | 0.395
50 | RRIRNRPPRLPRPRPRPREEPRP | -0.0547

Row | Sequence | shrunken log2 fold change
51 | RRIRFRPPRLPRPRPRPIHYPRP | -1.14
52 | RRIRSRPPRLPRPRPRPNFNPRP | -0.298
53 | RRIRFRPPRLPRPRPRPMTYPRP | -0.0939
54 | RRIRMRPPRLPRPRPRPLSHPRP | 0.177
55 | RRIRRRPPRLPRPRPRPSFKPRP | -0.117
56 | RRIRIRPPRLPRPRPRPHSWPRP | -0.327
57 | RRIRHRPPRLPRPRPRPDWDPRP | -0.0204
58 | RRIRLRPPRLPRPRPRPEQRPRP | 0.0422
59 | RRIRHRPPRLPRPRPRPQKRPRP | -0.225
60 | RRIRMRPPRLPRPRPRPFFYPRP | -0.123
61 | RRIRFRPPRLPRPRPRPWIYPRP | -0.662
62 | RRIRPRPPRLPRPRPRPWHWPRP | -0.0102
63 | RRIRCRPPRLPRPRPRPHWCPRP | -0.155
64 | RRIRPRPPRLPRPRPRPTKHPRP | -0.131
65 | RRIRVRPPRLPRPRPRPGNTPRP | -0.113
66 | RRIRNRPPRLPRPRPRPFIKPRP | -0.473
67 | RRIRARPPRLPRPRPRPSTYPRP | -0.356
68 | RRIRSRPPRLPRPRPRPEKVPRP | -0.1
69 | RRIRFRPPRLPRPRPRPWSMPRP | -0.548
70 | RRIRCRPPRLPRPRPRPGLRPRP | 0.147
71 | RRIRWRPPRLPRPRPRPQFFPRP | -0.134
72 | RRIRCRPPRLPRPRPRPLSNPRP | 0.504
73 | RRIRHRPPRLPRPRPRPHVRPRP | -0.0157
74 | RRIRFRPPRLPRPRPRPIPDPRP | -0.215
75 | RRIRQRPPRLPRPRPRPFMRPRP | -0.0303

Row | Sequence | shrunken log2 fold change
76 | RRIRARPPRLPRPRPRPNSQPRP | 0.0062
77 | RRIRFRPPRLPRPRPRPRGIPRP | -0.123
78 | RRIRERPPRLPRPRPRPIWNPRP | -0.0842
79 | RRIRQRPPRLPRPRPRPQIEPRP | -0.0133
80 | RRIRARPPRLPRPRPRPPGHPRP | 0.779
81 | RRIRYRPPRLPRPRPRPPRMPRP | -0.215
82 | RRIRIRPPRLPRPRPRPRSDPRP | -0.284
83 | RRIRGRPPRLPRPRPRPWFPPRP | -0.132
84 | RRIRERPPRLPRPRPRPQHVPRP | -0.356
85 | RRIRARPPRLPRPRPRPNEMPRP | -0.0653
86 | RRIRIRPPRLPRPRPRPQRRPRP | 0.19
87 | RRIRIRPPRLPRPRPRPYIRPRP | -0.159
88 | RRIRLRPPRLPRPRPRPGRTPRP | 0.292
89 | RRIRMRPPRLPRPRPRPYEVPRP | -0.00992
90 | RRIRMRPPRLPRPRPRPNNDPRP | -0.0943
91 | RRIRTRPPRLPRPRPRPWWGPRP | 0.221
92 | RRIRYRPPRLPRPRPRPMIQPRP | -0.0921
93 | RRIRGRPPRLPRPRPRPLYTPRP | 0.145
94 | RRIRDRPPRLPRPRPRPATIPRP | 0.0807
95 | RRIRGRPPRLPRPRPRPCLMPRP | 0.0827
96 | RRIRWRPPRLPRPRPRPCAEPRP | 0.618
97 | RRIRTRPPRLPRPRPRPVGCPRP | 0.304
98 | RRIRHRPPRLPRPRPRPIELPRP | -0.0301
99 | RRIRARPPRLPRPRPRPKPTPRP | 0.744
100 | RRIRCRPPRLPRPRPRPHHGPRP | -0.261

Row | Sequence | shrunken log2 fold change
101 | RRIRARPPRLPRPRPRPLWFPRP | 0.145
102 | RRIRCRPPRLPRPRPRPLLLPRP | -0.265
103 | RRIRRRPPRLPRPRPRPHEGPRP | 0.28
104 | RRIRERPPRLPRPRPRPNMVPRP | -0.61
105 | RRIRNRPPRLPRPRPRPKWCPRP | -0.00686
106 | RRIRQRPPRLPRPRPRPNHYPRP | -0.36
107 | RRIRHRPPRLPRPRPRPIMNPRP | -1.05
108 | RRIRTRPPRLPRPRPRPVNKPRP | 0.0243
109 | RRIRSRPPRLPRPRPRPPPPPRP | 1.03
110 | RRIRRRPPRLPRPRPRPINQPRP | 0.0137
111 | RRIRVRPPRLPRPRPRPMTIPRP | -0.435
112 | RRIRFRPPRLPRPRPRPTRAPRP | 0.825
113 | RRIRKRPPRLPRPRPRPSMEPRP | 0.181
114 | RRIRRRPPRLPRPRPRPELFPRP | 1.06
115 | RRIRPRPPRLPRPRPRPRKIPRP | -0.0764
116 | RRIRPRPPRLPRPRPRPMNLPRP | 0.00249
117 | RRIRIRPPRLPRPRPRPWIFPRP | -0.498
118 | RRIRDRPPRLPRPRPRPQQLPRP | -0.0103
119 | RRIRGRPPRLPRPRPRPQWKPRP | 0.113
120 | RRIRMRPPRLPRPRPRPSWDPRP | 0.709
121 | RRIRMRPPRLPRPRPRPAYPPRP | 0.0222
122 | RRIRVRPPRLPRPRPRPPLFPRP | 0.256
123 | RRIRARPPRLPRPRPRPAEVPRP | 0.129
124 | RRIRHRPPRLPRPRPRPVVEPRP | -0.0145
125 | RRIRARPPRLPRPRPRPYAYPRP | 0.104

Row | Sequence | shrunken log2 fold change
126 | RRIRMRPPRLPRPRPRPHFCPRP | -0.0487
127 | RRIRTRPPRLPRPRPRPFQMPRP | -0.135
128 | RRIRYRPPRLPRPRPRPFRKPRP | -0.00664
129 | RRIRCRPPRLPRPRPRPQKAPRP | 0.265
130 | RRIRFRPPRLPRPRPRPPCQPRP | 3.46
131 | RRIRDRPPRLPRPRPRPAADPRP | 0.701
132 | RRIRWRPPRLPRPRPRPEGGPRP | 0.567
133 | RRIRMRPPRLPRPRPRPLMVPRP | 0.396
134 | RRIRQRPPRLPRPRPRPPMYPRP | -0.269
135 | RRIRERPPRLPRPRPRPWMNPRP | -0.0137
136 | RRIRFRPPRLPRPRPRPEDPPRP | 0.379
137 | RRIRMRPPRLPRPRPRPWAQPRP | 0.35
138 | RRIRERPPRLPRPRPRPFLGPRP | -0.284
139 | RRIRDRPPRLPRPRPRPLWMPRP | 0.0442
140 | RRIRIRPPRLPRPRPRPRKHPRP | -0.252
141 | RRIRLRPPRLPRPRPRPGIHPRP | -0.322
142 | RRIRSRPPRLPRPRPRPKGLPRP | -0.0223
143 | RRIRVRPPRLPRPRPRPFLDPRP | -0.187
144 | RRIRKRPPRLPRPRPRPAYQPRP | 0.0163
145 | RRIRLRPPRLPRPRPRPLLCPRP | -0.0707
146 | RRIRKRPPRLPRPRPRPHQWPRP | 0.264
147 | RRIRPRPPRLPRPRPRPRVLPRP | -0.0343
148 | RRIRIRPPRLPRPRPRPTHAPRP | 0.216
149 | RRIRCRPPRLPRPRPRPNELPRP | -0.171
150 | RRIRKRPPRLPRPRPRPAQIPRP | 0.342

— the supplement of paper PMC9112550, “Optimization of the antimicrobial peptide Bac7 by deep mutational scanning” (BMC Biology, 2022)
